Results reported in US20240018501A1, “HIGHER PERFORMANCE PROTEASES FOR SCARLESS PEPTIDE TAG REMOVAL” (priority 2017, published 2024).
Ends that are not written are not given here.

Tests used:
CylA = CylA proteolytic cleavage of leader peptides (MALDI-TOF MS); assay type: biochemical, Enterococcus faecalis
Protocol: Targeted peptides were dissolved in H2O to a final concentration of 3 mg/mL. To a 85 μL solution of peptides, 10 μL of 500 mM HEPES buffer (pH 7.5) was added followed by 5 μL of 0.5 mg/mL AspN protease (for modified CylLL and CylLS peptides), 0.1 mg/mL CylA protease (for modified and unmodified CylLL, CylLS peptides, and modified HalA2-GDVQAE peptide) or 0.1 mg/mL LicP protease (for LicA2). For cleavage tests of the engineered GDVQAE peptides, CylA was added to a final concentration of 0.01 mg/mL, whereas the peptide was added to a concentration of 0.3 mg/mL with 50 mM HEPES buffer (pH 7.5). The protease cleavage reaction mixtures were kept at 25° C. for 1 to 48 h. Osmotic pressure was adjusted with NaCl solution with a final concentration of 150 mM. The digested peptide mixture was directly used for antimicrobial and hemolytic assay. For the kinetic analysis of CylA and its mutant proteins, His6-CylA-27-412 and His6-CylA-27-412-E95A proteins were added to a final concentration of 500 ng/mL and 2.5 μg/mL (22 nM and 110 nM), respectively, with modified CylLS supplied at a concentration of 0.3 mg/mL (36 μM). The reactions were allowed to proceed at room temperature and were stopped by 1% TFA at different time points for LC/MS analysis. Halα and Halβ were obtained by factor Xa cleavage of modified HalA1Xa and HalA2 Xa peptides using the procedure of Y. Shi, et al. J. Am. Chem. Soc. […]

His6-NisA = His6-NisA (UniProt P13068)
MBP-ElxP = MBP-ElxP activity assay by MALDI-TOF MS; assay type: biochemical, Staphylococcus epidermidis; conditions: non-cognate NisA and NisA mutants
Protocol: A typical activity assay consisted of 50 mM Tris HCl pH 8.0, 50 μM peptide, 5 μM MBP-ElxP in a final volume of 100 μL. The sample was incubated for 2 h at room temperature. To monitor cleavage activity, samples were desalted using a zip tip concentrator (Millipore), mixed in a 1:1 ratio with sinapinic acid, and spotted on a MALDI-TOF Bruker plate. Ion intensities for the resulting precursor peptide, leader peptide and core peptide were normalized and the proteolytic efficiency was measure as the amount of substrate left after cleavage reaction (Table 1). Reactions were performed with tagged enzyme and substrates unless otherwise noticed.

His6-NisA-GDVQAE, P13068 = target: T1, His6-NisA-GDVQAE, P13068
T1 chain: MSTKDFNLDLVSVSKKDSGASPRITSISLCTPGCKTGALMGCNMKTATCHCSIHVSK

[1] = target: NisA-I1C (with GDVQAE), P13068
[2] = target: CylLL″ with a 5-amino acid peptide remaining from the leader
[3] = target: CylLS″ with a 5-amino acid N-terminal peptide
[4] = target: His6-ProcA1.7 with GDVQAE inserted between the His6-tag sequence and ProcA1.7
[5] = target: peptides with Glu or Lys in the P1′ position (after GDVQAE)
[6] = target: ProcA1.7-T1C (with GDVQAE)
[7] = target: HalM1-modified HalA1-GDVQAE
[8] = target: HalM2-modified HalA2-GDVQAE

Question: Which “leader peptide removal / cleavage by CylA” value (CylA) does the source give for “His6-NisA-GDVQAE: linear NisA with engineered GDVQAE recognition sequence” here?
Answer: successfully removed

Question: What does the source list for MBP-ElxP?
Answer: MBP-ElxP cleavage result by MALDI-TOF MS (+++ complete, ++ partial, + marginal cleavage) (His6-ElxA L-4A): +; fold reduction of the ElxP catalytic efficiency against wild type ElxA (His6-ElxA L-4A): reduction of ˜14-fold in the ElxP catalytic efficiency; MBP-ElxP cleavage result by MALDI-TOF MS (+++ complete, ++ partial, + marginal cleavage) (His6-ElxA F-19A): ++; MBP-ElxP cleavage result by MALDI-TOF MS (+++ complete, ++ partial, + marginal cleavage) (His6-ElxA L-17A): +++; MBP-ElxP cleavage result by MALDI-TOF MS (+++ complete, ++ partial, + marginal cleavage) (His6-ElxA D-5A): +; MBP-ElxP cleavage result by MALDI-TOF MS (+++ complete, ++ partial, + marginal cleavage) (His6-ElxA D-18A): +++; MBP-ElxP cleavage result by MALDI-TOF MS (+++ complete, ++ partial, + marginal cleavage) (His6-ElxA Q-1A): +; fold reduction of the ElxP catalytic efficiency against wild type ElxA (His6-ElxA Q-1A): reduction of ˜14-fold in the ElxP catalytic efficiency; MBP-ElxP cleavage result by MALDI-TOF MS (+++ complete, ++ partial, + marginal cleavage) (His6-ElxA P-2A): ++; efficiency of leader peptide removal (HPLC kinetics, FIG. 3D) (His6-ElxA P-2A): did not obviously decrease the efficiency of MBP-ElxP to remove the N-terminal leader peptide from ElxA; MBP-ElxP cleavage result by MALDI-TOF MS (+++ complete, ++ partial, + marginal cleavage) (His6-ElxA wt): +++; catalytic efficiency of cleavage (HPLC, leader peptide formation) (His6-ElxA wt): MBP-ElxP cleaved the wild type ElxA with an efficiency of ˜240 M-'s 1; cleavage by ElxP, MALDI-TOF MS (His6-NisA): ElxP does not cleave wild type NisA; MBP-ElxP cleavage result by MALDI-TOF MS (+++ complete, ++ partial, + marginal cleavage) (His6-ElxA N-3A): +++; MBP-ElxP cleavage result by MALDI-TOF MS (+++ complete, ++ partial, + marginal cleavage) (His6-ElxA N-16A): +++

Question: For “wild type NisA: non-cognate lanthipeptide precursor peptide of nisin, His6-tagged (MSTKDFNLDLVSVSKKDSGASPRITSISLCTPGCKTGALMGCNMKTATCHCSIHVSK; cysteine pairing not given here; also: His6-tagged, tag position not given here)”, which “cleavage by ElxP” value (MBP-ElxP) is on record?
Answer: does not cleave

B1: His6-CylA-27-412 (protein)
chain: MGSSHHHHHHSQDPNSLSNNISFFIDNSQTTAIEEIESELSSEKVDYIQEIGLVSFKNLDDSDRKFIGKYFNVSEGKKLPDFKPEEVNSSILNINILNKDFKSFNWPYKKILSHIDPVKEQLGKDITIALIDSGIDRLHPNLQDNNLRLKNYVNDIELDEYGHGTQVAGVIDTIAPRVNLNSYKVMDGTDGNSINMLKAIVDATNDQVDIINVSLGSYKNMEIDDERFTVEAFRKVVNYARKNNILIVASAGNESRDISTGNEKHIPGGLESVITVGATKKSGDIADYSNYGSNVSIYGPAGGYGDNYKITGQIDAREMMMTYYPTSLVSPLGKAADFPDGYTLSFGTSLATPEVSAALAAIMSKNVDNSKDSNEVLNTLFENADSFIDKNSMLKYKEVRIK
Question: With B1 as the molecule, how does the “cleavage by CylA, MALDI-TOF MS” value (ProcA1.7-GDVQAE-T1G) read?
Answer: CylA specifically cleaved after Glu-1 for all three mutant peptides, albeit with a lower efficiency for the T-1G mutant

Question: And the “cleavage by CylA, MALDI-TOF MS” value (His6-NisA-GDVQAE, P13068)?
Answer: the leader peptides of both His6-ProcA1.7-GDVQAE and His6-NisA-GDVQAE were successfully removed

Question: What about the “cleavage by CylA, MS” value (modified CylLL) of the same molecule?
Answer: the enzyme also removed the entire leader peptides

Question: And the “cleavage by CylA” value [1]?
Answer: CylA cleanly removed the leader peptide from both substrates

Question: And the “cleavage by CylA, MS” value (modified CylLS)?
Answer: the enzyme also removed the entire leader peptides

Question: What about the “cleavage by CylA, MALDI-TOF MS” value (ProcA1.7-GDVQAE-T1F) of the same molecule?
Answer: CylA specifically cleaved after Glu-1 for all three mutant peptides

Question: What about the “cleavage by CylA, MALDI-TOF MS” value [2] of the same molecule?
Answer: the 5 amino acids were successfully removed

Question: What about the “cleavage by CylA, MALDI-TOF MS” value [3] of the same molecule?
Answer: the 5 amino acids were successfully removed

Question: And the “cleavage by CylA” value [4]?
Answer: Incubation with CylA indeed resulted in cleavage and removal of the His6-tag sequence

Question: And the “cleavage by CylA” value [5]?
Answer: it did not accept Glu or Lys in the P1′ position

Question: And the “cleavage by CylA” value [6]?
Answer: CylA cleanly removed the leader peptide from both substrates

Question: What about the “cleavage by CylA, MALDI-TOF MS” value (linear CylLS) of the same molecule?
Answer: it also removed the leader peptides from linear CylLL and CylLS

Question: What about the “cleavage by CylA, MALDI-TOF MS” value (His6-ProcA1.7-GDVQAE) of the same molecule?
Answer: the leader peptides of both His6-ProcA1.7-GDVQAE and His6-NisA-GDVQAE were successfully removed

Question: What about the “cleavage by CylA, MALDI-TOF MS” value [7] of the same molecule?
Answer: The modified peptide was successfully digested upon incubation with CylA

Question: What about the “cleavage by CylA, MALDI-TOF MS” value [8] of the same molecule?
Answer: the leader peptide was successfully removed

Question: What about the “cleavage by CylA, MALDI-TOF MS” value (ProcA1.7-GDVQAE-T1W) of the same molecule?
Answer: CylA specifically cleaved after Glu-1 for all three mutant peptides

Question: And the “cleavage by CylA, MALDI-TOF MS” value (linear CylLL)?
Answer: it also removed the leader peptides from linear CylLL and CylLS
